Assay results taken from doi:10.1101/2020.04.06.028423 (bioRxiv, 2020).

T1: His-tagged VP35 IID (VP35 aa 215-340) (Ebola virus (EBOV), UniProt Q05127 215-340)
T1 sequence: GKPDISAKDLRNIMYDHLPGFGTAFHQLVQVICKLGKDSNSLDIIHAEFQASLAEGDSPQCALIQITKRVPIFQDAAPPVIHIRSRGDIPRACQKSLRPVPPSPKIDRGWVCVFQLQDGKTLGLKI

B1: GST-NP(412-500) (domain or fragment)
chain: ASLPKTSGHYDDDDDIPFPGPINDDDNPGHQDDDPTDSQDTTIPDVVVDPDDGSYGEYQSYSENGMNAPDDLVLFDLDEDDEDTKPVPN

Molecular target: T1, His-tagged VP35 IID (VP35 aa 215-340)
Assay: pull-down

| Binder | binding result |
| --- | --- |
| B1 | binds |
| DDLVLFDLDEDDED (domain or fragment) [GST-NP(481-494)] | binds |
| DDLVLFDLDEDDEDTKPVPN (domain or fragment) [GST-NP(481-500)] | binds |
